# From patent US7666989B2 (priority 2003, dated 2010)
# Several values for one entry are separate records, joined by “and”; a condition that tells them apart may be missing. Identical values can stand only once. Like-named read-outs stand apart in the source and are kept apart here. Marks after values point to notes of the source that are not given here.
# B1: CPT: human recombinant circularly permuted TRAIL (CPT), which consists of 166 amino acid residues; SEQ ID No:2 (protein)
# chain: TLSSPNSKNEKALGRKINSWESSRSGHSFLSNLHLRNGELVIHEKGFYYIYSQTYFRFQEEIKENTKNDKQMVQYIYKYTSYPDPILLMKSARNSCWSKDAEYGLYSIYQGGIFELKENDRIFVSVTNEHLIDMDHEASFFGAFLVGGGGGGVAAHITGTRGRSNT
# modifications: Synthetically generated peptide
# How the values were obtained:
# human brain glioma U251 = settings: U251 xenograft, ten injections; for Body Weight (g) Start / Tumor volume (mm^3) Start: baseline; for Inhibition rate (%): by tumor weight
# Source text: In this example, the animals used were BALB/c-nu nude mice, 6-8 weeks old. For each experiment, all animals were of the same sex.
# Tumor cell lines: human brain glioma U251, human lung cancer cell line NCI-H460, human colon cancer cell line COLO205 were inoculated from in vitro culture into nude mice subcutaneously, the tumors were subcultured and kept.
# Experimental Procedures: well-grown nude mice carrying well-grown tumors were selected and sacrificed by disjointing neck vertebra. The tumors were removed aseptically and were cut into pieces having a diameter of 2-3 mm by a scalpel. The pieces were inoculated into the axilla of nude mice subcutaneously by a needle. […] The length and width of tumors were measured by a vernier caliper. The animals were then grouped based their tumor sizes. Each group included seven to eight animals.
# The length, width of the tumor and the body weight of the mice were measured twice per week. The tumor volume (TV) and relative tumor volume (RTV) were calculated. A graph indicating the changes of tumor size was plotted. At the end of this experiment, the tumors were taken out and weighed after the mice were sacrificed, and the inhibition rates of the medicament on tumor growth were calculated.
# The formula for calculating tumor volume (TV) is: length×width^2÷2.
# The formula for calculating relative tumor volume (RTV) is: Vt/Vo (wherein Vo is the TV value measured when the administration is started, Vt is the TV value measured after that).
# T-test was used to determine the statistical difference of tumor weights, tumor volumes and RTV etc. between different groups of animal. The index used for evaluating the anti-tumor activity is the relative tumor growth rate T/C (%), the formula for which is: […]
# (§1) The evaluation standard for efficacy:
# (§2) T/C (%)>60 is ineffective;
# T/C (%)≦60 and P<0.05 after statistical analysis is effective.
# The Carmustine (Renmin Pharmaceuticals, Amino Acid Inc. Tianjin, P. R. China) was used as the positive control, 40 mg/kg, administered by intraperitoneal injection for once. CPT was given to four groups at the doses of 0.6 mg/kg, 1.7 mg/kg, 5.0 mg/kg, 15.0 mg/kg respectively, administered by intraperitoneal injection. The treatment included ten injections.
# [1] = tested on: human lung cancer NCI-H460; experiment: Growth of human lung cancer NCI-H460 xenograft in nude mice; type: in vivo, BALB/c-nu nude mice; settings: ten injections; for Body Weight (g) Start / Tumor volume (mm^3) Start: baseline; for Inhibition rate (%): by tumor weight
# Description: The animals were then grouped based their tumor sizes. Each group included seven to eight animals.
# as §1, §2
# One additional injection was given at 80 mg/kg two weeks later. […] The treatment contained a total of ten injections.
# [2] = CPT 1.7 mg/kg i.p. once per day
# [3] = CPT 5.0 mg/kg i.p. once per day
molecule,measurement,setting,value
B1,Body Weight (g) End,human brain glioma U251; CPT 0.6 mg/kg i.p.,21.0 ± 1.4 g
same,RTV,human brain glioma U251; CPT 0.6 mg/kg i.p.,2.77 ± 1.97
same,T/C (%),human brain glioma U251; CPT 0.6 mg/kg i.p.,82.9%
same,Tumor volume (mm^3) End,human brain glioma U251; CPT 0.6 mg/kg i.p.,961 ± 582 mm^3
same,Tumor weight,human brain glioma U251; CPT 0.6 mg/kg i.p.,0.89 ± 0.49 g
same,Body Weight (g) Start,human brain glioma U251; CPT 0.6 mg/kg i.p.,21.0 ± 0.8 g
same,Tumor volume (mm^3) Start,human brain glioma U251; CPT 0.6 mg/kg i.p.,141 ± 40 mm^3
same,Inhibition rate (%),human brain glioma U251; CPT 0.6 mg/kg i.p.,30.5%
same,Body Weight (g) End,human brain glioma U251; CPT 1.7 mg/kg i.p.,21.5 ± 2.0 g
same,RTV,human brain glioma U251; CPT 1.7 mg/kg i.p.,2.12 ± 1.29
same,T/C (%),human brain glioma U251; CPT 1.7 mg/kg i.p.,63.5%
same,Tumor volume (mm^3) End,human brain glioma U251; CPT 1.7 mg/kg i.p.,588 ± 215** mm^3
same,Tumor weight,human brain glioma U251; CPT 1.7 mg/kg i.p.,0.71 ± 0.22 g
same,Body Weight (g) Start,human brain glioma U251; CPT 1.7 mg/kg i.p.,21.6 ± 1.2 g
same,Tumor volume (mm^3) Start,human brain glioma U251; CPT 1.7 mg/kg i.p.,131 ± 34 mm^3
same,Inhibition rate (%),human brain glioma U251; CPT 1.7 mg/kg i.p.,44.5%
same,Body Weight (g) End,human brain glioma U251; CPT 5.0 mg/kg i.p.,21.9 ± 3.2 g
same,RTV,human brain glioma U251; CPT 5.0 mg/kg i.p.,1.32 ± 1.24
same,T/C (%),human brain glioma U251; CPT 5.0 mg/kg i.p.,39.5%
same,Tumor volume (mm^3) End,human brain glioma U251; CPT 5.0 mg/kg i.p.,510 ± 333** mm^3
same,Tumor weight,human brain glioma U251; CPT 5.0 mg/kg i.p.,0.45 ± 0.26 g
same,Body Weight (g) Start,human brain glioma U251; CPT 5.0 mg/kg i.p.,22.0 ± 1.1 g
same,Tumor volume (mm^3) Start,human brain glioma U251; CPT 5.0 mg/kg i.p.,133 ± 57 mm^3
same,Inhibition rate (%),human brain glioma U251; CPT 5.0 mg/kg i.p.,64.8%
same,Body Weight (g) End,human brain glioma U251; CPT 15 mg/kg i.p.,21.1 ± 1.7 g
same,RTV,human brain glioma U251; CPT 15 mg/kg i.p.,0.71 ± 0.57
same,Tumor volume (mm^3) End,human brain glioma U251; CPT 15 mg/kg i.p.,261 ± 238** mm^3
same,Tumor weight,human brain glioma U251; CPT 15 mg/kg i.p.,0.16 ± 0.15 g
same,Body Weight (g) Start,human brain glioma U251; CPT 15 mg/kg i.p.,21.6 ± 1.1 g
same,Tumor volume (mm^3) Start,human brain glioma U251; CPT 15 mg/kg i.p.,148 ± 58 mm^3
same,Inhibition rate (%),human brain glioma U251; CPT 15 mg/kg i.p.,87.5% and 87.7%
same,Body Weight (g) End,[1]; [2],19.8 ± 1.6 g
same,RTV,[1]; [2],2.27 ± 1.13
same,T/C (%),[1]; [2],38.0%
same,Tumor volume (mm^3) End,[1]; [2],706 ± 170* mm^3
same,Tumor weight,[1]; [2],0.77 ± 0.19 g
same,Body Weight (g) Start,[1]; [2],20.1 ± 1.9 g
same,Tumor volume (mm^3) Start,[1]; [2],200 ± 103 mm^3
same,Inhibition rate (%),[1]; [2],52.2%
same,Body Weight (g) End,[1]; [3],18.5 ± 2.5 g
same,RTV,[1]; [3],1.49 ± 0.76
same,Tumor volume (mm^3) End,[1]; [3],469 ± 359** mm^3
same,Tumor weight,[1]; [3],0.41 ± 0.28 g
same,Body Weight (g) Start,[1]; [3],20.4 ± 1.9 g
same,Tumor volume (mm^3) Start,[1]; [3],187 ± 51 mm^3
same,Inhibition rate (%),[1]; [3],74.5%
same,Body Weight (g) End,[1]; CPT 15 mg/kg i.p. once per day,21.1 ± 1.7 g
same,RTV,[1]; CPT 15 mg/kg i.p. once per day,0.79 ± 0.25
same,Tumor volume (mm^3) End,[1]; CPT 15 mg/kg i.p. once per day,189 ± 102** mm^3
same,Tumor weight,[1]; CPT 15 mg/kg i.p. once per day,0.21 ± 0.10 g
same,Body Weight (g) Start,[1]; CPT 15 mg/kg i.p. once per day,20.9 ± 1.1 g
same,Tumor volume (mm^3) Start,[1]; CPT 15 mg/kg i.p. once per day,192 ± 63 mm^3
same,Inhibition rate (%),[1]; CPT 15 mg/kg i.p. once per day,87.0% and 88.8%
